Data published in the supplement of paper PMC7877785.
± gives the uncertainty stated by the source.

Assay: self-splicing fitness, log relative to wild type (ln ratio); higher = more splicing; Tetrahymena group I intron in knt gene, E. coli kanamycin selection, DiMSum; sequences stand for … in CUCUCU…GGAGGGAAAAGUUAUCAGGCAUGCACCUGGUAGCUAGUCUUUAAACCAAUAGAUUGCAUCGGUUUAAAAGGCAAGACCGUCAAAUUGCGGGAAAGGGGUCAACAGCCGUUCAGUACCAAGUCUCAGGGGAAACUUUGAGAUGGCCUUGCAAAGGGUAUGGUAAUAAGCUGACGGACAUGGUCCUAACCACGCAGCCAAGUCCUAAGUCAACAGAUCUUCUGUUGAUAUGGAUGCAGUUCACAGACUAAAUGUCGGUCGGGGAAGAUGUAUUCUUCUCAUAAGAUAUAGUCGGACCUCUCCUUAAUGGGAGCUAGCGGAUGAAGUGAUGCAACACUGGAGCCGCUGGGAACUAAUUUGUAUGCGAAAGUAUAUUGAUUAGUUUUGGAGUACUCGUGGUCG
In short: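 Six replicate transformations of E. coli BL21(DE3) with a pET-22b(+) library were grown overnight at 37°C or 30°C. The library randomised all eight P1ex-region intron nucleotides, the intron lying in the knt kanamycin-resistance gene, and plates were LB agar with or without 25 μg/mL kanamycin plus 100 μg/mL carbenicillin, 50 μM IPTG and 0.2% rhamnose. Pooled colonies were amplicon-sequenced on an Illumina HiSeq 2500, and fitness is the DiMSum error-weighted combination of wild-type-normalised replicate fold changes, kanamycin versus none.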

| Sequence | self-splicing fitness (ln) (30 °C) | self-splicing fitness (ln) (37 °C) |
| --- | --- | --- |
| GGCCAGCAAUAUUACGCGCA | -0.425 ± 0.1 | 0.666 ± 0.13 |
| GGCCAGCAAUAUUACGCGCC | -3.11 ± 0.24 | -2.05 ± 0.44 |
| GGCCAGCAAUAUUACGCUGA | -0.636 ± 0.063 | -0.331 ± 0.074 |
| GGCCAGCAAUAUUACGGAAG | -1.79 ± 0.082 | -0.69 ± 0.11 |
| GGCCAGCAAUAUUACGUAUA | -3.92 ± 0.26 | -2.23 ± 0.2 |
| GGCCAGCAAUAUUACGUCAC | -2.59 ± 0.34 | – |
| GGCCAGCAAUAUUACGUGAC | -2.05 ± 0.09 | -1.16 ± 0.11 |
| GGCCAGCAAUAUUACGUGAU | -1.31 ± 0.075 | -0.482 ± 0.097 |
| GGCCAGCAAUAUUACGUGUU | -0.771 ± 0.055 | -0.0103 ± 0.07 |
| GGCGAGCAAUAUUACGAACA | -1.16 ± 0.16 | -0.12 ± 0.14 |
| GGCGAGCAAUAUUACGAAUG | -3.21 ± 0.18 | -2.84 ± 0.2 |
| GGCGAGCAAUAUUACGACUU | 0.166 ± 0.15 | 0.444 ± 0.14 |
| GGCGAGCAAUAUUACGAGUA | -1.9 ± 0.35 | -1.99 ± 0.22 |
| GGCGAGCAAUAUUACGCAUG | -1.32 ± 0.22 | -0.82 ± 0.23 |
| GGCGAGCAAUAUUACGCGGA | -2.3 ± 0.17 | -0.458 ± 0.13 |
| GGCGAGCAAUAUUACGCUAC | -1.38 ± 0.22 | 1.89 ± 0.48 |
| GGCGAGCAAUAUUACGCUAG | -3.88 ± 0.28 | -2.82 ± 0.23 |
| GGCGAGCAAUAUUACGGAAC | -1.91 ± 0.19 | -1.68 ± 0.26 |
| GGCGAGCAAUAUUACGUACG | -2.43 ± 0.18 | -1.35 ± 0.22 |
| GGCGAGCAAUAUUACGUAUA | -1.86 ± 0.14 | -1.07 ± 0.13 |
| GGCGAGCAAUAUUACGUCAG | -2.33 ± 0.31 | -3.08 ± 0.4 |
| GGCGAGCAAUAUUACGUCUC | -1.87 ± 0.23 | -1.67 ± 0.38 |
| GGCGAGCAAUAUUACGUGUC | -4.05 ± 0.21 | -1.46 ± 0.16 |
| GGCUAGCAAUAUUACGAAUU | -0.487 ± 0.19 | -0.299 ± 0.15 |
| GGCUAGCAAUAUUACGAGGC | -2.31 ± 0.24 | – |

| Sequence | self-splicing fitness (ln) (30 °C) | self-splicing fitness (ln) (37 °C) |
| --- | --- | --- |
| GGCUAGCAAUAUUACGAGUA | -1.59 ± 0.13 | -0.404 ± 0.13 |
| GGCUAGCAAUAUUACGAUGA | -0.793 ± 0.15 | -0.54 ± 0.16 |
| GGCUAGCAAUAUUACGAUGU | -1.45 ± 0.084 | -0.785 ± 0.083 |
| GGCUAGCAAUAUUACGAUUG | -1.67 ± 0.12 | -1.47 ± 0.13 |
| GGCUAGCAAUAUUACGCAAG | -4 ± 0.46 | -0.63 ± 0.22 |
| GGCUAGCAAUAUUACGGGAG | -2.17 ± 0.14 | -1.84 ± 0.19 |
| GGCUAGCAAUAUUACGGGUU | -1.9 ± 0.096 | -0.879 ± 0.09 |
| GGCUAGCAAUAUUACGGUAU | -0.65 ± 0.061 | 0.376 ± 0.084 |
| GGCUAGCAAUAUUACGGUGG | -1.23 ± 0.096 | -0.767 ± 0.1 |
| GGCUAGCAAUAUUACGUCAC | -2.28 ± 0.16 | -1.01 ± 0.17 |
| GGCUAGCAAUAUUACGUCGG | -3.95 ± 0.29 | -2.61 ± 0.26 |
| GGCUAGCAAUAUUACGUCGU | 0.26 ± 0.075 | 0.153 ± 0.092 |
| GGCUAGCAAUAUUACGUGAU | -0.939 ± 0.099 | -0.509 ± 0.11 |
| GGCUAGCAAUAUUACGUGCU | -2.34 ± 0.24 | -1.27 ± 0.14 |
| GGCUAGCAAUAUUACGUGUC | -1.67 ± 0.18 | -1.26 ± 0.23 |
| GGCUAGCAAUAUUACGUUAU | -0.733 ± 0.072 | -0.394 ± 0.091 |
| GGGAAGCAAUAUUACGAAAC | -0.695 ± 0.14 | -0.469 ± 0.17 |
| GGGAAGCAAUAUUACGAACA | -1.2 ± 0.13 | -0.445 ± 0.14 |
| GGGAAGCAAUAUUACGAACG | -0.494 ± 0.086 | 0.55 ± 0.16 |
| GGGAAGCAAUAUUACGACGC | -0.0345 ± 0.14 | -0.0751 ± 0.18 |
| GGGAAGCAAUAUUACGAGCG | -1.41 ± 0.12 | -0.447 ± 0.15 |
| GGGAAGCAAUAUUACGAUGC | 0.369 ± 0.12 | 0.306 ± 0.13 |
| GGGAAGCAAUAUUACGCACA | -2.53 ± 0.26 | -0.142 ± 0.41 |
| GGGAAGCAAUAUUACGCCUU | -1.8 ± 0.17 | 0.48 ± 0.15 |
| GGGAAGCAAUAUUACGCGAA | -0.913 ± 0.14 | -0.969 ± 0.2 |

| Sequence | self-splicing fitness (ln) (30 °C) | self-splicing fitness (ln) (37 °C) |
| --- | --- | --- |
| GGGAAGCAAUAUUACGCGAG | -1.06 ± 0.33 | -1.27 ± 0.47 |
| GGGAAGCAAUAUUACGCUAG | -1.73 ± 0.18 | -1.01 ± 0.2 |
| GGGAAGCAAUAUUACGCUGG | -2.97 ± 0.23 | -1.73 ± 0.18 |
| GGGAAGCAAUAUUACGCUUA | -0.798 ± 0.12 | -0.449 ± 0.12 |
| GGGAAGCAAUAUUACGCUUG | -1.61 ± 0.21 | -0.729 ± 0.2 |
| GGGAAGCAAUAUUACGGAUG | -3.55 ± 0.21 | -1.15 ± 0.15 |
| GGGAAGCAAUAUUACGGCAA | -0.863 ± 0.14 | -1.02 ± 0.14 |
| GGGAAGCAAUAUUACGGCUG | -0.935 ± 0.13 | -0.54 ± 0.17 |
| GGGAAGCAAUAUUACGGGCG | -1.14 ± 0.13 | -0.362 ± 0.15 |
| GGGAAGCAAUAUUACGGGUA | -0.928 ± 0.2 | -2.25 ± 0.23 |
| GGGAAGCAAUAUUACGGUGC | -1.17 ± 0.17 | -0.397 ± 0.22 |
| GGGAAGCAAUAUUACGUACG | -0.982 ± 0.15 | -0.441 ± 0.18 |
| GGGAAGCAAUAUUACGUACU | -2.15 ± 0.21 | -2.2 ± 0.22 |
| GGGAAGCAAUAUUACGUAUG | -2.95 ± 0.16 | -1.11 ± 0.15 |
| GGGAAGCAAUAUUACGUCAA | -1.34 ± 0.32 | – |
| GGGAAGCAAUAUUACGUCUG | 0.292 ± 0.099 | -0.174 ± 0.12 |
| GGGAAGCAAUAUUACGUUCA | 0.0857 ± 0.1 | -0.473 ± 0.14 |
| GGGAAGCAAUAUUACGUUGA | -3.37 ± 0.23 | -1.94 ± 0.18 |
| GGGAAGCAAUAUUACGUUGC | -3.92 ± 0.42 | – |
| GGGCAGCAAUAUUACGACUU | 0.0195 ± 0.16 | -0.0822 ± 0.19 |
| GGGCAGCAAUAUUACGAUUU | -0.054 ± 0.053 | -0.281 ± 0.065 |
| GGGCAGCAAUAUUACGCCAU | -1.69 ± 0.12 | -1.21 ± 0.13 |
| GGGCAGCAAUAUUACGCGAU | -2.41 ± 0.39 | -1.8 ± 0.28 |
| GGGCAGCAAUAUUACGCUGA | -1.25 ± 0.12 | -0.998 ± 0.15 |
| GGGCAGCAAUAUUACGCUUC | – | -1.85 ± 0.17 |

| Sequence | self-splicing fitness (ln) (30 °C) | self-splicing fitness (ln) (37 °C) |
| --- | --- | --- |
| GGGCAGCAAUAUUACGGACA | -1.97 ± 0.38 | -0.246 ± 0.39 |
| GGGCAGCAAUAUUACGGACC | -0.717 ± 0.25 | 0.0103 ± 0.36 |
| GGGCAGCAAUAUUACGGAGU | -2.8 ± 0.12 | -1.78 ± 0.11 |
| GGGCAGCAAUAUUACGGCAG | -2.41 ± 0.13 | -0.994 ± 0.14 |
| GGGCAGCAAUAUUACGGCCG | -1.5 ± 0.16 | -1.59 ± 0.26 |
| GGGCAGCAAUAUUACGGGCC | -2.96 ± 0.2 | -2.66 ± 0.31 |
| GGGCAGCAAUAUUACGGUAG | -3.2 ± 0.19 | -1.34 ± 0.19 |
| GGGCAGCAAUAUUACGGUAU | -1.06 ± 0.081 | -0.373 ± 0.13 |
| GGGCAGCAAUAUUACGUACU | -0.53 ± 0.098 | -0.834 ± 0.11 |
| GGGCAGCAAUAUUACGUAGC | -1.79 ± 0.22 | -0.913 ± 0.28 |
| GGGCAGCAAUAUUACGUAGG | -2.38 ± 0.075 | -1.32 ± 0.091 |
| GGGCAGCAAUAUUACGUCAG | -1.19 ± 0.087 | -0.138 ± 0.11 |
| GGGCAGCAAUAUUACGUCCU | – | -3.02 ± 0.32 |
| GGGCAGCAAUAUUACGUCUA | 0.309 ± 0.1 | -1.04 ± 0.1 |
| GGGCAGCAAUAUUACGUGGG | -3.1 ± 0.12 | -2.62 ± 0.13 |
| GGGGAGCAAUAUUACGAAGU | -2.04 ± 0.34 | – |
| GGGGAGCAAUAUUACGACAC | -0.721 ± 0.14 | -0.843 ± 0.24 |
| GGGGAGCAAUAUUACGACGG | -3.76 ± 0.46 | – |
| GGGGAGCAAUAUUACGACGU | -0.89 ± 0.12 | -0.094 ± 0.15 |
| GGGGAGCAAUAUUACGAUUG | -2.02 ± 0.45 | -1.67 ± 0.45 |
| GGGGAGCAAUAUUACGCAUA | -3.29 ± 0.48 | -2.28 ± 0.32 |
| GGGGAGCAAUAUUACGCGUG | -1.75 ± 0.13 | -1.96 ± 0.17 |
| GGGGAGCAAUAUUACGGGCC | – | -1.4 ± 0.28 |
